The data set “cryo-EM structure” concerns the molecule itself. Put plainly: cryo-EM structure.
Data set [1] concerns the molecule itself. The data set can be described thus: small-angle X-ray scattering.

The results in this text go back to PMC9992347 (Molecular cell, 2023).

B1: SPOP^1-374 W22R (natural protein, human, UniProt O43791 1-374, looked up)
chain: MSRVPSPPPPAEMSSGPVAESRCYTQIKVVKFSYMWTINNFSFCREEMGEVIKSSTFSSGANDKLKWCLRVNPKGLDEESKDYLSLYLLLVSCPKSEVRAKFKFSILNAKGEETKAMESQRAYRFVQGKDWGFKKFIRRDFLLDEANGLLPDDKLTLFCEVSVVQDSVNISGQNTMNMVKVPECRLADELGGLWENSRFTDCCLCVAGQEFQAHKAILAARSPVFSAMFEHEMEESKKNRVEINDVEPEVFKEMMCFIYTGKAPNLDKMADDLLAAADKYALERLKVMCEDALCSNLSVENAAEILILADLHSADQLKTQAVDFINYHASDVLETSGWKSMVVSHPHLVAEAYRSLASAQCPFLGPPRKRLKQS
With B1, the binding result in “cryo-EM structure” is reported as “binds”.

B2: SPOP^1-374 W131G (natural protein, human, UniProt O43791 1-374, looked up)
chain: MSRVPSPPPPAEMSSGPVAESWCYTQIKVVKFSYMWTINNFSFCREEMGEVIKSSTFSSGANDKLKWCLRVNPKGLDEESKDYLSLYLLLVSCPKSEVRAKFKFSILNAKGEETKAMESQRAYRFVQGKDGGFKKFIRRDFLLDEANGLLPDDKLTLFCEVSVVQDSVNISGQNTMNMVKVPECRLADELGGLWENSRFTDCCLCVAGQEFQAHKAILAARSPVFSAMFEHEMEESKKNRVEINDVEPEVFKEMMCFIYTGKAPNLDKMADDLLAAADKYALERLKVMCEDALCSNLSVENAAEILILADLHSADQLKTQAVDFINYHASDVLETSGWKSMVVSHPHLVAEAYRSLASAQCPFLGPPRKRLKQS
In the case of B2, in data set [1], the binding result is listed as “binds”.

B3: SPOP^1-374 E47K (natural protein, human, UniProt O43791 1-374, looked up)
chain: MSRVPSPPPPAEMSSGPVAESWCYTQIKVVKFSYMWTINNFSFCREKMGEVIKSSTFSSGANDKLKWCLRVNPKGLDEESKDYLSLYLLLVSCPKSEVRAKFKFSILNAKGEETKAMESQRAYRFVQGKDWGFKKFIRRDFLLDEANGLLPDDKLTLFCEVSVVQDSVNISGQNTMNMVKVPECRLADELGGLWENSRFTDCCLCVAGQEFQAHKAILAARSPVFSAMFEHEMEESKKNRVEINDVEPEVFKEMMCFIYTGKAPNLDKMADDLLAAADKYALERLKVMCEDALCSNLSVENAAEILILADLHSADQLKTQAVDFINYHASDVLETSGWKSMVVSHPHLVAEAYRSLASAQCPFLGPPRKRLKQS
With B3, the binding result in “cryo-EM structure” was “binds”.
